B1: C1a411-472: proximal segment of C1a, residues 411-472 of rat Kv2.1 (protein, UniProt P15387 411-472, looked up, fragment)
chain: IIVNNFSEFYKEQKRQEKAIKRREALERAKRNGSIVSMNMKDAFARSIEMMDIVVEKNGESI

Assays:
Kv2.1/syntaxin binding = target: T1, Kv2.1/syntaxin binding (Homo sapiens, UniProt Q16623); test: Co-immunoprecipitation of Kv2.1 with syntaxin from transfected CHO cells; assay type: cell-based; conditions: for effect on Kv2.1/syntaxin binding (co-immunoprecipitation): syntaxin-expressing CHO cells co-transfected with Kv2.1 and peptide plasmid, syntaxin immunoprecipitates probed for Kv2.1
T1 construct: expressed in transfected cells; host or cells: CHO cells
Method: For electrophysiological experiments, mixed cortical neuronal/glial cultures were prepared from embryonic day 16 (E16) Sprague-Dawley rats (Charles River Laboratories, Wilmington, Mass., USA). Donor rats were euthanized by gradual CO2 exposure. Cortices were dissociated with trypsin, and the resultant cell suspension, adjusted to 670,000 cells per well, was plated on glass coverslips in 6-well plates as described previously (Hartnett et al., J Neurochem 68, 1836-1845, 1997). Non-neuronal cell proliferation was inhibited after two weeks in culture with 1-2 μM cytosine arabinoside, and cultures utilized at three to four weeks in vitro. For neuronal transfection, cells were treated for five hours in serum-free medium with 2 μL LIPOFECTAMINE™ 2000 (Invitrogen, Carlsbad, Calif.), 50 μL Optimem (GIBCO, Grand Island, N.Y.), and 1.5 μg DNA per well. For CHO cell transfections, cells were plated on coverslips in 24-well plates at a density of 5.6×10^4 cells per well for electrophysiological measurements or in 100 mm dishes at a density of 1.7×10^6 cells per dish for biochemical studies. Cells were treated for 3-4 hours in serum-free medium with a total of 1.2 μL LIPOFECTAMINE™ and 0.28 μg DNA per well for electrophysiology, or 55.1 μL LIPOFECTAMINE™ and 7.33 μg DNA per dish for biochemistry. Following transfection, cells were maintained in F12 medium containing fetal bovine serum at 37° C., 5% CO2 for 24 hours prior to experimentation.
Protein was harvested by washing cell culture dishes with ice cold PBS followed by a short incubation with 1% 3-[(3-cholamidopropyl) dimethylammonio]-1-propanesulfonate buffer. Protein A/G agarose bead slurry (Santa Cruz, Dallas, Tex.) was added to the samples and rocked at 4° C. for 1 hour in order to pre-clear non-specific protein binding. Samples were then incubated overnight at 4° C. with the appropriate immunoprecipitating antibodies. Following another incubation with the bead slurry, the protein samples were prepared/denatured by the addition of sample preparation buffer (625 mM Tris, 25% glycerol, 2% sodium dodecyl sulfate (SDS), 0.01% bromophenol blue and 5% β-mercaptoethanol) and heated at 95° C. for 5 min prior to SDS polyacrylamide gel electrophoresis and immunoblotting.
Protein samples from equal amounts of cell lysate were separated on 10% sodium dodecyl sulfate SDS polyacrylamide gels by electrophoresis using the Mini Protean 3 System (Bio-Rad, Hercules, Calif.). Separated protein bands were transferred onto 0.2 μm nitrocellulose membranes (Bio-Rad), blocked with 1% bovine serum albumin (BSA) in PBS with 0.05% Tween 20 (PBST) at room temperature for 1 hour, and probed with appropriate primary antibodies diluted in PBST. Blots were then incubated with infrared fluorescent goat secondary antibodies at room temperature for 1 hour, visualized using the Odyssey Imaging System (LI-COR Biosciences, Lincoln, Nebr.), and quantified using infrared fluorimetry.
After establishing that C1a effectively precluded the oxidant-induced K^+ current increase in neurons, studies were performed to identify the sub-domains within C1a that could retain the ability to disrupt Kv2.1/syntaxin binding. C1a was divided into overlapping proximal and distal segments, hereafter referred to as C1a411-472 and C1a441-522, respectively. Co-immunoprecipitation experiments were performed to compare the ability of C1a and the smaller segments to displace Kv2.1 from syntaxin. Syntaxin immunoprecipitates of protein samples obtained from CHO cells transfected with a syntaxin-expressing plasmid, and co-transfected with Kv2.1 together with C1a, C1a411-472, or C1a441-522, were probed for Kv2.1.

human syntaxin = target: T2, human syntaxin (Homo sapiens, UniProt Q16623); test: Far-Western analysis of syntaxin binding to SPOT peptide arrays; conditions: for syntaxin binding inferred from the overlapping peptide array: sequence deduced from or picked out of the 15-mer array, not spotted itself; for syntaxin binding to spotted peptide (fluorescence intensity): 15-mer peptides on PVDF membrane, human syntaxin over-expressing CHO cell lysate, four arrays
T2 construct: expressed in transfected cells; host or cells: CHO cells (lysate)
Method: FIG. 8: Binding of Kv2.1 peptides to syntaxin. The 76 overlapping Kv2.1 peptides were spot-plated as an array onto a polyvinylidene fluoride membrane using the SPOTS-synthesis method. Membranes were incubated with a human syntaxin over-expressing CHO cell lysate and a far-Western analysis of syntaxin binding to the peptide arrays was performed using a commercially available syntaxin antibody and fluorescently tagged secondary antibody. Fluorescence intensity was quantified as an index of syntaxin binding to the spot array. Bars represent the mean+/−SEM of binding in four independent arrays. […]

T1 sequence (Q16623 whole entry): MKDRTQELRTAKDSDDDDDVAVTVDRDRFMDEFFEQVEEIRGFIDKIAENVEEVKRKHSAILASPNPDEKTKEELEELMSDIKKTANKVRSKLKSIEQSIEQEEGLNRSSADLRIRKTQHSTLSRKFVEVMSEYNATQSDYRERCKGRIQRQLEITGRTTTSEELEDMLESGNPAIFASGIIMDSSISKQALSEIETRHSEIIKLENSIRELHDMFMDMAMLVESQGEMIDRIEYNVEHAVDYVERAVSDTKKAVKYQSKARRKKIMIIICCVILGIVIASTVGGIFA
T2 sequence (Q16623 whole entry): as above

Molecule | effect on Kv2.1/syntaxin binding (co-immunoprecipitation) (Kv2.1/syntaxin binding) | syntaxin binding inferred from the overlapping peptide array (human syntaxin) | syntaxin binding to spotted peptide (fluorescence intensity) (human syntaxin) | further results
C1a441-472: overlapping middle segment of C1a, residues 441-472 of rat Kv2.1 (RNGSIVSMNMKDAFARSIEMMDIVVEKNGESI; UniProt P15387 441-472, looked up, fragment) | had no effect on syntaxin's ability to bind to Kv2.1 |  |  | mean±SEM ratio of Kv2.1 to syntaxin immunoblots (Kv2.1/syntaxin binding; CHO cells, n=3, baseline=0.24±0.08): 0.25±0.1
DIVVEEKNGE (DIVVEKNGE; listed as Rattus norvegicus) [reference compound] |  | non-syntaxin-binding |  | 
HLSPNKWKW (listed as Rattus norvegicus) |  | represents the syntaxin-binding domain |  | 
peptide #22: 15-mer, residues 472-486 of SEQ ID NO: 3 (DKVQDNHLSPNKWKW; listed as Rattus norvegicus) |  |  | initial peptide showing substantial binding | 
peptide #28: 15-mer, residues 478-492 of SEQ ID NO: 3 (HLSPNKWKWTKRALS; listed as Rattus norvegicus) |  |  | final peptide showing substantial binding | 
B1 | did not |  |  | 

From patent US9932382B2, “Kv2.1 channel-derived peptides and methods of use” (University of Pittsburgh—Of the Commonwealth System of …, priority 2014, dated 2018)
